From US20240352445A1 (published 2024) come the findings set out here.

Assay [1] addresses Epsilon (B.1.427).
The target in assay [2] is SARS-CoV-2 spike protein trimer, wild type (SARS-CoV-2, UniProt P0DTC2 16-1213).

B1: hN2F (antibody, V domains shown)
VH: EVQLVESGGGLVQPGGSLRLSCTVSGFSLSTYAMSWVRQAPGKGLEWIGVIASNADTYYASWAKGRFTISRDNSKNTLYLQMNSLRAEDTAVYYCARHPGSAGYGYAVYYAMDPWGQGTLVTVSS
VL: DIQMTQSPSSLSASVGDRVTITCKASEDIRYGLNWYQQKPGKAPKLLIYGANTLEAGVPSRFSGSGSGTDFTLTISSLQPEDFATYYCQQGYSTPLTFGGGTKVEIK
B1 showed an IC50 in assay [1] of 0.0178 mg/L.

B2: LxC1-G10 (antibody, V domains shown)
VH: EVQLVESGGGLVQPGGSLRLSCTVSGFSLSTYAMSWVRQAPGKGLEWIGVIASNADTYYASWAKGRFTISRDNSKNTLYLQMNSLRAEDTAVYYCARHPGSAGYGYAVYYAMDPWGQGTLVTVSS
VL: DIQMTQSPSSLSASVGDRVTITCQASERVFYGIDWYQQKPGKAPKLLIYGASALWHGVPSRFSGSGSGTDYTLTISSLQPEDFATYYCQQGYMVPIGFGGGTKVEIK
In the case of B2, 0.0169 mg/L corresponded to half-maximal inhibition in assay [1] (IC50).

B3: humanized antibody hN2F (antibody, V domains shown)
VH: EVQLVESGGGLVQPGGSLRLSCTVSGFSLSTYAMSWVRQAPGKGLEWIGVIASNADTYYASWAKGRFTISRDNSKNTLYLQMNSLRAEDTAVYYCARHPGSAGYGYAVYYAMDPWGQGTLVTVSS
VL: DIQMTQSPSSLSASVGDRVTITCKASEDIRYGLNWYQQKPGKAPKLLIYGANTLEAGVPSRFSGSGSGTDFTLTISSLQPEDFATYYCQQGYSTPLTFGGGTKVEIK
In assay [2], B3 had an IC50 of 0.0246 mg/L.

B4: humanized antibody hN2Y (antibody, V domains shown)
VH: EVQLVESGGGLVQPGGSLRLSCTVSGFSLSTYAMSWVRQAPGKGLEWIGVIASNADTYYASWAKGRFTISRDNSKNTLYLQMNSLRAEDTAVYYCARHPGSAGYGYAVYYAMDPWGQGTLVTVSS
VL: DIQMTQSPSSLSASVGDRVTITCKASEDIRYGLNWYQQKPGKAPKLLIYGANTLEAGVPSRFSGSGSGTDYTLTISSLQPEDFATYYCQQGYSTPLTFGGGTKVEIK
For B4, it took 0.0382 mg/L to reach half-maximal inhibition in assay [2] (IC50).

B5: hN2Y (antibody, V domains shown)
VH: EVQLVESGGGLVQPGGSLRLSCTVSGFSLSTYAMSWVRQAPGKGLEWIGVIASNADTYYASWAKGRFTISRDNSKNTLYLQMNSLRAEDTAVYYCARHPGSAGYGYAVYYAMDPWGQGTLVTVSS
VL: DIQMTQSPSSLSASVGDRVTITCKASEDIRYGLNWYQQKPGKAPKLLIYGANTLEAGVPSRFSGSGSGTDYTLTISSLQPEDFATYYCQQGYSTPLTFGGGTKVEIK
Take B5: half-maximal inhibition in assay [1] (IC50) required 0.018 mg/L.

B6: C-A11 (antibody, V domains shown)
VH: QSLEESGGRLVTPGTPLTLTCTVSGFSLSTYAMSWVRQAPGKGLEWIGVIASNADTYYASWAKGRITISKTSTTVDLKITSPTTEDTATYFCARHPGSAGYGYAVYYAMDPWGPGTLVTVSS
VL: AIEMTQSPSSLAASVGDTVTITCKASEDIRYGLNWYQQKLGIAPKLLIYGANTLEAGVPSRFSGSGSETDYTLTISSVQAEDAGIYYCQQGYSTPLTFGAGTKVEIK
In turn, B6 gave an IC50 in assay [1] of 0.014 mg/L.

B7: rabbit monoclonal antibody C-A11 (antibody, V domains shown)
VH: QSLEESGGRLVTPGTPLTLTCTVSGFSLSTYAMSWVRQAPGKGLEWIGVIASNADTYYASWAKGRITISKTSTTVDLKITSPTTEDTATYFCARHPGSAGYGYAVYYAMDPWGPGTLVTVSS
VL: AIEMTQSPSSLAASVGDTVTITCKASEDIRYGLNWYQQKLGIAPKLLIYGANTLEAGVPSRFSGSGSETDYTLTISSVQAEDAGIYYCQQGYSTPLTFGAGTKVEIK
B7 returned an IC50 in assay [2] of 0.027 mg/L.
